# B1: Aminopeptidase P (APaseP) (protein)
# chain: PPKVTSELLRQLRQAMRNSEYVTEPIQAYIIPSGDAHQSEYIAPCDCRRAFVSGFDGSAGTAIITEEHAAMWTDGRYFLQAAKQMDSNWTLMKMGLKDTPTQEDWLVSVLPEGSRVGVDPLIIPTDYWKKMAKVLRSAGHHLIPVKENLVDKIWTDRPERPCKPLLTLGLDYTGISWKDKVADLRLKMAERNVMWFVVTALDEIAWLFNLRGSDVEHNPVFFSYAIIGLETIMLFIDGDRIDAPSVKEHLLLDLGLEAEYRIQVHPYKSILSELKALCADLSPREKVWVSDKASYAVSETIPKDHRCCMPYTPICIAKAVKNSAESEGMRRAHIKDAVALCELFNWLEKEVPKGGVTEISAADKAEEFRRQQADFVDLSFPTISSTGPNGAIIHYAPVPETNRTLSLDEVYLIDSGAQYKDGTTDVTRTMHFGTPTAYEKECFTYVLKGHIAVSAAVFPTGTKGHLLDSFARSALWDSGLDYLHGTGHGVGSFLNVHEGPCGISYKTFSDEPLEAGMIVTDEPGYYEDGAFGIRIENVVLVVPVKTKYNFNNRGSLTFEPLTLVPIQTKMIDVDSLTDKECDWLNNYHLTCRDVIGKELQKQGRQEALEWLIRETQPISKQH
# Biological target: Bradykinin (Homo sapiens, UniProt P01042)
# Test: SPR
# Sequence of Bradykinin (P01042 whole entry, looked up): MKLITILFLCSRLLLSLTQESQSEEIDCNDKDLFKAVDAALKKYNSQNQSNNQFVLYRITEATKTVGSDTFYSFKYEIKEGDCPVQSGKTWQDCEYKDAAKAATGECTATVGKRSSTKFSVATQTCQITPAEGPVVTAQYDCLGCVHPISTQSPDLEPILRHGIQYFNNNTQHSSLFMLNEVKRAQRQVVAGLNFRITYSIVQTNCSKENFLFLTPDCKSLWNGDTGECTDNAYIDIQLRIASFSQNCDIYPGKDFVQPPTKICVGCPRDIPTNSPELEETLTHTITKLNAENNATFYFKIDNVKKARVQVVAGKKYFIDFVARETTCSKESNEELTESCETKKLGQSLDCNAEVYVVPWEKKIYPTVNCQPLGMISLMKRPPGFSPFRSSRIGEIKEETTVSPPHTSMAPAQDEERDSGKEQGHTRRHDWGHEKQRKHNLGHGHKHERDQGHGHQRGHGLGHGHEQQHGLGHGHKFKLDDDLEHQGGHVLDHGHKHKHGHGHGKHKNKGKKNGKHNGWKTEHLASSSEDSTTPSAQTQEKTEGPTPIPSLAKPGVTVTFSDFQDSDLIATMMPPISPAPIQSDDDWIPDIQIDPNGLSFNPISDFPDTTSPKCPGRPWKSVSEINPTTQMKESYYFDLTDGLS
binder,measurement,value
B1,Kd,15.3 µM

# From paper PMC5702532 (2016)
